# Experimental data reported in patent publication US20210205403A1 (RESEARCH FOUNDATION FOR THE STATE UNIVERSITY OF NEW YORK, published 2021).
# Target: HDM-2 in the cancer cell membrane (human, UniProt Q00987 1-491)
# Test: cell-based or functional assay
# HDM-2 in the cancer cell membrane, sequence (Q00987 whole entry): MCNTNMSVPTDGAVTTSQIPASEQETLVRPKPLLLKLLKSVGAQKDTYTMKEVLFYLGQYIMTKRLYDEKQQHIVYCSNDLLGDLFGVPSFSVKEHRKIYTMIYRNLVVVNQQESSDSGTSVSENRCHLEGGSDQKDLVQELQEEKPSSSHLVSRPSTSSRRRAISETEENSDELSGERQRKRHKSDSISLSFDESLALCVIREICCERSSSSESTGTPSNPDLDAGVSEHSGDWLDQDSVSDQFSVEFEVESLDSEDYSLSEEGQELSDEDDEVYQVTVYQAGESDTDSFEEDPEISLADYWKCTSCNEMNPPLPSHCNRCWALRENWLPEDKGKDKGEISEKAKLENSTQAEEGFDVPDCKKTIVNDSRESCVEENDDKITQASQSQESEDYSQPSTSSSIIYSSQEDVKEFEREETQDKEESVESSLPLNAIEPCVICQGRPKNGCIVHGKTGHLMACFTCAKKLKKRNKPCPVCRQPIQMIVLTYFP
binder,measurement,value
PPLSQETFSDLWKLLKKWKMRRNQFWVKVQRG [PNC-27 (p53 aa12-26-MRP)],IC50 (dose of PNC-27 on cancer cells),125 µg/mL
